Experimental data published in paper PMC2807175.

B1: OsSUT5 (Oryza sativa Japonica Group) (protein)
chain: MEEGRRGDREGKSAAGWTALSTTKTTLEEKRRLQANGSVGGDAGTSGFRRIVRLFFACMVAGGIQYGWALQLSLLSPYSQTLGISHSYVSLTWICGPIAGFVVQPIVGYYSDRCTMKMGRRRPFILVGCLIICISVMIIGFSADIGRHLGDTKEHCSTYTGPRWSAAMVYIVGFWFLDFANNTVQGPARAMMADLSAGHHGPNVGQSIFSLWMAIGSVLGYLSGANGKWHEWFPWLKTAACCDACANLKGAFFTAVLLIVVSMTVTMYLADEMPLDKQDVDTSGGGGCAVFVDLFKSLRNLPPAMFKVLAVTAVTWLSWFPFIQYNTDWMGREIYHGEPQGTAAKADVYDAGVREGAMGLLFCSVALGVTSFVIPKLCRRLTSKVVWSISNFLVFALMAVMVAVGMVSMRGYRPSLAAGLTGPDPTLKAVALVVFALIGIPQAVLFSVPWAVASEVTAEEGGGQGLAIGVLNIAIVVPQLVIALTAGPIDGAFNKGNTPAFGIGGAFAFICGVLALIWLPKTRGVSNAAVVAGGH
B2: OsSUT1 (Oryza sativa Japonica Group) (protein)
chain: MARGSGAGGGGGGGGGGLELSVGVGGGGGARGGGGGEAAAAVETAAPISLGRLILSGMVAGGVQYGWALQLSLLTPYVQTLGLSHALTSFMWLCGPIAGMVVQPCVGLYSDRCTSKWGRRRPYILTGCVLICLAVVVIGFSADIGYAMGDTKEDCSVYHGSRWHAAIVYVLGFWLLDFSNNTVQGPARALMADLSGRHGPGTANSIFCSWMAMGNILGYSSGSTNNWHKWFPFLKTRACCEACANLKGAFLVAVIFLSLCLVITLIFAKEVPFKGNAALPTKSNEPAEPEGTGPLAVLKGFRNLPTGMPSVLIVTGLTWLSWFPFILYDTDWMGREIYHGDPKGTDPQIEAFNQGVRAGAFGLLLNSIVLGFSSFLIEPMCRKVGPRVVWVTSNFLVCIAMAATALISFWSLKDFHGTVQKAITADKSIKAVCLVLFAFLGVPLAVLYSVPFAVTAQLAATRGGGQGLCTGVLNISIVIPQVVIALGAGPWDELFGKGNIPAFGLASGFALIGGVAGIFLLPKISKRQFRSVSMGGGH

Substrate: OC[C@H]1O[C@@](CO)(O[C@H]2O[C@H](CO)[C@@H](O)[C@H](O)[C@H]2O)[C@@H](O)[C@@H]1O
Experiment: cells, lysate or membranes
Conditions: pH 5.6, Na Ringer, membrane potential -117 mV, H+ symport

Protein | K0.5
B1 | 2.32 mM
B2 | 7.50 mM
